The record followed here is the Immune Epitope Database (IEDB).

The target in one experiment is HLA-B*53:01. Kind of experiment: IEDB peptide-MHC binding, purified MHC/competitive/radioactivity; filed as Kd, often an IC50 or EC50 that approximates it; ≥ and ≤ were set here for values at or beyond the usual limits of such assays. The following applies: source organism: Dengue virus 2 Jamaica/1409/1983.
Experiment [1] deals with HLA-A*24:02. Described as above. As to conditions: source organism: Dengue virus 2 Jamaica/1409/1983.
Another experiment has as its target HLA-B*35:01. The experiment is described as above. As to conditions: source organism: Dengue virus 2 Jamaica/1409/1983.
For the next experiment, the target named is HLA-A*23:01. Described as above.
The target in experiment [2] is HLA-B*15:01. The experiment is described as above.
Experiment [3] concerns the target HLA-A*24:02. In words: IEDB peptide-MHC binding, purified MHC/competitive/fluorescence; ≥ and ≤ were set here for values at or beyond the usual limits of such assays.
In another experiment the target is HLA-A*24:03. In words: IEDB peptide-MHC binding, purified MHC/direct/fluorescence; filed as Kd, often an IC50 or EC50 that approximates it; ≥ and ≤ were set here for values at or beyond the usual limits of such assays.
The next experiment deals with HLA-B*40:01. The description is as above.
For experiment [4], the target named is HLA-B*15:01. Described as above.
The next experiment deals with HLA-A*02:01. The description is as above.
Experiment [5] deals with HLA-A*03:01. Described as above.
A further experiment deals with HLA-B*07:02. Described as above.
The next experiment addresses HLA-B*44:02. The experiment is described as above.
For a further experiment, the target named is HLA-B*58:01. The description is as above.
Another experiment deals with HLA-A*69:01. The description is as above.
The target in experiment [6] is HLA-B*08:01. The experiment is described as above.
Experiment [7] deals with HLA-A*01:01. The description is as above.
Experiment [8] has as its target HLA-A*11:01. The experiment is described as above.
The target of experiment [9] is HLA-A*31:01. The experiment is described as above.
A further experiment has as its target HLA-B*27:05. The description is as above.
For experiment [10], the target named is HLA-A*26:01. Described as above.
In experiment [11] the target is HLA-A*26:01. Kind of experiment: IEDB peptide-MHC binding, purified MHC/competitive/radioactivity; filed as Kd, often an IC50 or EC50 that approximates it; ≥ and ≤ were set here for values at or beyond the usual limits of such assays.
A further experiment addresses HLA-A*02:06. Described as above. As to conditions: source organism: Vaccinia virus WR.
A further experiment addresses HLA-A*02:02. Described as above. The following applies: source organism: Vaccinia virus WR.
The next experiment concerns the target HLA-A*02:03. Described as above. The following applies: source organism: Vaccinia virus WR.
Experiment [12] has as its target HLA-B*15:01. Kind of experiment: IEDB peptide-MHC binding, purified MHC/competitive/fluorescence; filed as Kd, often an IC50 or EC50 that approximates it; ≥ and ≤ were set here for values at or beyond the usual limits of such assays. The following applies: source organism: Kurkino virus.
For a further experiment, the target named is HLA-A*33:01. Kind of experiment: IEDB peptide-MHC binding, purified MHC/competitive/radioactivity; filed as Kd, often an IC50 or EC50 that approximates it; ≥ and ≤ were set here for values at or beyond the usual limits of such assays. As to conditions: source organism: Vaccinia virus WR.
In experiment [13] the target is HLA-A*03:01. Described as above. As to conditions: source organism: Vaccinia virus WR.
Experiment [14] concerns the target HLA-A*11:01. The description is as above. The following applies: source organism: Vaccinia virus WR.
Experiment [15] addresses HLA-A*31:01. The experiment is described as above. As to conditions: source organism: Vaccinia virus WR.
The target of a further experiment is HLA-A*68:01. Described as above. As to conditions: source organism: Vaccinia virus WR.
A further experiment has as its target HLA-A*30:02. The experiment is described as above.
For experiment [16], the target named is HLA-A*01:01. The experiment is described as above. The following applies: source organism: Dengue virus 4 Philippines/H241/1956.
Experiment [17] has as its target HLA-B*08:01. The experiment is described as above. As to conditions: source organism: Vaccinia virus WR.
[18] abbreviates: source organism: Dengue virus 2 Jamaica/1409/1983.
Setting [19] is: source organism: Zaire ebolavirus.
[20] abbreviates: source organism: Escherichia coli.
Where [21] appears, read: source organism: Escherichia coli O157:H7.
Setting [22] is: source organism: Dengue virus 3 Martinique/1243/1999.
Setting [23] is: source organism: Giardia lamblia ATCC 50803.
Setting [24] is: source organism: Giardia intestinalis.
The mark [25] stands for this setting: source organism: Vaccinia virus WR.
Setting [26] is: source organism: Vaccinia virus Copenhagen.
[27] abbreviates: source organism: Dengue virus 4 Philippines/H241/1956.
[28] abbreviates: source organism: West Nile virus.

As for FMALVAFLRF, the Kd (in general, the equilibrium constant for the complex coming apart) was 1000 nM with HLA-B*53:01; no less than 27900 nM with HLA-A*24:02 [1]; 69.7 nM in the experiment with HLA-B*35:01; 2510 nM with HLA-A*23:01 (setting [18]); 229 nM with HLA-B*15:01 [2] (setting [18]).
As for AVKYLEGHG, in the experiment with HLA-A*24:02 [3] (setting [19]), the IC50 (commonly the point on the concentration scale where inhibition reaches its midpoint) is no less than 117000 nM.
In the case of GLKRGGVLL, the dissociation constant Kd with HLA-A*24:03 (setting [20]) was no less than 20000 nM; with HLA-B*40:01 (setting [21]), no less than 20000 nM; with HLA-B*15:01 [4] (setting [20]), 919 nM; in the experiment with HLA-A*02:01 (setting [20]) it was 2050 nM; with HLA-A*03:01 [5] (setting [21]) it was no less than 20000 nM; with HLA-B*07:02 (setting [20]), 8280 nM. The Kd with HLA-B*44:02 (setting [21]), with HLA-B*58:01 (setting [21]), with HLA-A*69:01 (setting [21]), with HLA-B*08:01 [6] (setting [21]), with HLA-A*01:01 [7] (setting [21]) and with HLA-A*11:01 [8] (setting [21]) was no less than 20000 nM in each case. Also, the Kd with HLA-A*31:01 [9] (setting [21]), in the experiment with HLA-B*27:05 (setting [21]) and with HLA-A*26:01 [10] (setting [21]) was no less than 20000 nM throughout.
In the case of RTNAAMGAVF, the equilibrium dissociation constant (Kd) is 2050 nM with HLA-A*23:01 (setting [22]), 19.4 nM with HLA-B*15:01 [2] (setting [22]) and no less than 57300 nM in the experiment with HLA-A*26:01 [11] (setting [22]).
Sequence MYRHILRSQ yielded an IC50 with HLA-A*24:02 [3] (setting [19]) of 56000 nM. That is a double-digit micromolar value.
Consider GPRRAAWRI, for which the Kd with HLA-A*24:03 (setting [23]) was no less than 20000 nM; with HLA-B*40:01 (setting [24]), no less than 20000 nM; with HLA-B*15:01 [4] (setting [24]) it was no less than 20000 nM; with HLA-A*02:01 (setting [24]), no less than 20000 nM; with HLA-A*03:01 [5] (setting [24]) it was no less than 20000 nM; with HLA-B*07:02 (setting [23]) it was 61.8 nM. The equilibrium dissociation constant (Kd) with HLA-B*44:02 (setting [24]), with HLA-B*58:01 (setting [24]), in the experiment with HLA-A*69:01 (setting [24]), with HLA-B*08:01 [6] (setting [24]), with HLA-A*01:01 [7] (setting [24]) and with HLA-A*11:01 [8] (setting [24]) was no less than 20000 nM each time. Also, the Kd with HLA-A*31:01 [9] (setting [24]), with HLA-B*27:05 (setting [24]) and with HLA-A*26:01 [10] (setting [24]) was no less than 20000 nM throughout.
In the case of EYSKDSRNK, the IC50 with HLA-A*24:02 [3] (source organism: Vaccinia virus) was no less than 284000 nM.
As for QLFKYVPSA, the Kd with HLA-A*02:06 came to 349 nM; with HLA-B*15:01 [2] (setting [25]) it was 377 nM; in the experiment with HLA-A*02:02, 12.3 nM; in the experiment with HLA-A*02:03 it was 7.81 nM.
In the case of VSVNNVCHM, the Kd in the experiment with HLA-B*15:01 [2] (setting [26]) was determined as 13.9 nM.
Turning to ADIGEWAFW, in the experiment with HLA-A*24:02 [3] (source organism: Sudan ebolavirus), the IC50 came to 19400 nM. In other words, the double-digit micromolar range.
As for AFMRFDDQF, the Kd with HLA-A*24:03 (source organism: Listeria monocytogenes) is no more than 1 nM.
For FQTLTSCTF, the Kd in the experiment with HLA-B*15:01 [12] stood at 35.7 nM.
For the sequence NTNKHMLEF, the Kd in the experiment with HLA-B*15:01 [2] (setting [25]) is 11.8 nM.
On to LLHCVTESY, for which the Kd with HLA-A*33:01 is no less than 26300 nM; with HLA-B*15:01 [2] (setting [25]) it was 1.04 nM; with HLA-A*03:01 [13], 3930 nM; with HLA-A*11:01 [14], 8230 nM; with HLA-A*31:01 [15] it was 12500 nM; with HLA-A*68:01, 12400 nM.
For KRSVMLIGI, the IC50 with HLA-A*24:02 [3] (setting [25]) is 9380 nM.
In the case of ALLLLVAHY, the equilibrium dissociation constant (Kd) was 50.6 nM with HLA-B*15:01 [2] (setting [18]) and no less than 76900 nM with HLA-A*30:02 (setting [18]).
With EIYTYFSHC, the Kd with HLA-B*15:01 [2] (setting [25]) stood at 933 nM.
On to ALMVIGMAM, for which the Kd with HLA-B*15:01 [2] (setting [27]) was found to be 2.62 nM.
Turning to LSRVFFCVY, the Kd with HLA-B*15:01 [2] (setting [25]) is 2.9 nM.
QYQQLREAA gave a half-inhibitory concentration (IC50) with HLA-A*24:02 [3] (setting [19]) of no less than 73900 nM.
With GMLSSLHTL, the Kd with HLA-A*24:03 (setting [23]) is 215 nM; in the experiment with HLA-B*40:01 (setting [23]) it was no less than 20000 nM; with HLA-B*15:01 [4] (setting [23]), 255 nM; with HLA-A*02:01 (setting [23]), 18.7 nM; with HLA-A*03:01 [5] (setting [23]), no less than 20000 nM; in the experiment with HLA-B*44:02 (setting [23]), no less than 20000 nM. In addition, the Kd in the experiment with HLA-B*58:01 (setting [23]) is 5050 nM; in the experiment with HLA-A*69:01 (setting [23]), no less than 20000 nM; in the experiment with HLA-A*01:01 [7] (setting [23]) it was no less than 20000 nM; in the experiment with HLA-A*11:01 [8] (setting [23]) it was no less than 20000 nM; in the experiment with HLA-A*31:01 [9] (setting [23]) it was no less than 20000 nM; with HLA-B*27:05 (setting [23]), 2700 nM. In the experiment with HLA-A*26:01 [10] (setting [23]), this sequence displayed a Kd of no less than 20000 nM.
Sequence SGSTSPRML showed a half-maximal inhibitory concentration (IC50) in the experiment with HLA-A*24:02 [3] (setting [19]) of no less than 188000 nM.
In turn, KYVDYMSSL gave an IC50 with HLA-A*24:02 [3] (setting [28]) of 507 nM.
Regarding MTATLEDDR, the IC50 with HLA-A*24:02 [3] (source organism: Variola virus) is 14600 nM. In other words, the double-digit micromolar range.
Take VYRIMTRGL: the Kd with HLA-A*24:03 (setting [28]) stood at 580 nM.
ALITVSGLY: the Kd was found to be 2.26 nM in the experiment with HLA-B*15:01 [2] (setting [27]), 0.68 nM with HLA-A*30:02 (setting [27]), 8110 nM with HLA-A*01:01 [16] and 560 nM with HLA-A*26:01 [11] (setting [27]).
Consider STANIFRGSY, for which the Kd amounted to 4.87 nM with HLA-B*15:01 [2] (setting [27]), 2.08 nM with HLA-A*30:02 (setting [27]), 1140 nM in the experiment with HLA-A*01:01 [16] and 23.6 nM with HLA-A*26:01 [11] (setting [27]).
In the experiment with HLA-A*24:02 [3] (setting [19]), SNSVAQARF registered an IC50 of no less than 83600 nM.
Turning to RWLGGILPW, the IC50 with HLA-A*24:02 [3] (setting [25]) was determined as 11.1 nM.
Regarding FAPSYSAEM, the Kd in the experiment with HLA-B*15:01 [2] (setting [25]) was found to be 454 nM.
Take AKCIEYVTL: the IC50 with HLA-A*24:02 [3] (setting [26]) is no less than 172000 nM.
As to SMISRHCCI, the Kd worked out at 80.7 nM in the experiment with HLA-B*15:01 [2] (setting [25]) and 1.25 nM with HLA-B*08:01 [17].
On to MIIMDEAHF, for which the Kd with HLA-B*15:01 [2] (source organism: Dengue virus 1 Brazil/97-11/1997) was 18.5 nM.
